To fix the notation:
B1: HDV Ribozyme (parent)
chain: GGCCGGCAUGGUCCCAGCCUCCUCGCUGGCGCCGGCUGGGCAACAUUCCGAGGGGACCGUCCCCUCGGUAAUGGCGAAUGGGACCCA

80 variants from the RNAGym collection of RNA variant scans (doi:10.7554/elife.80360) can be followed below.

Variants of B1 are the subject of this data set. Nature of the data set: self-cleavage, relative activity (ratio to wild type); higher = more cleavage; co-transcriptional.
Take U79G A83C: the self-cleavage is 0.204.

For C86A A87U, the self-cleavage is 0.9.

As for G80U C85A, the self-cleavage is 0.288.

Take G81C G82C: the self-cleavage was determined as 0.106.

As to G80C G81A, the self-cleavage amounted to 0.089.

Take A83G C85U: the self-cleavage stood at 0.9.

With G80A G82U, the self-cleavage stood at 0.0511.

G82C C86U: the self-cleavage came out at 0.285.

Consider G81A C84U, for which the self-cleavage turned out to be 0.327.

For C84G C85U, the self-cleavage is 0.719.

C84G C85A: the self-cleavage was 0.928.

With U79A G81U, the self-cleavage was determined as 0.295.

C84U C86A: the self-cleavage worked out at 0.767.

Turning to G80C A83C, the self-cleavage worked out at 0.128.

Turning to C84A C85U, the self-cleavage is 0.639.

In the case of C84A C85A, the self-cleavage is 0.571.

With G80U A87C, the self-cleavage is 0.192.

For the variant G80U A87G, the self-cleavage stood at 0.272.

On to U79G C84U, for which the self-cleavage amounted to 0.554.

Take G80C A87U: the self-cleavage is 0.177.

Consider G81C C84A, for which the self-cleavage came out at 0.26.

Consider G82A C85A, for which the self-cleavage was 0.253.

On to G82A C85U, for which the self-cleavage is 0.495.

In the case of C85G A87C, the self-cleavage is 0.849.

Turning to G80U C86G, the self-cleavage is 0.243.

Regarding C86G A87G, the self-cleavage stood at 0.905.

Regarding C86G A87U, the self-cleavage worked out at 0.965.

For G82U A83U, the self-cleavage came to 0.289.

With G82U A83G, the self-cleavage was 0.137.

As to U79C C86A, the self-cleavage came out at 0.513.

On to G82U C86G, for which the self-cleavage stood at 0.39.

C84G A87C: the self-cleavage stood at 0.409.

For the variant C84G A87G, the self-cleavage was 0.282.

For A83C A87C, the self-cleavage turned out to be 0.499.

As to A83C C86A, the self-cleavage was determined as 0.554.

With C85U A87U, the self-cleavage amounted to 0.956.

For G82U A87U, the self-cleavage was 0.462.

G80A A83C: the self-cleavage was 0.135.

Regarding A83G A87G, the self-cleavage amounted to 0.733.

As to A83G A87U, the self-cleavage amounted to 0.861.

Consider U79G G80C, for which the self-cleavage was found to be 0.277.

Take G80U G82C: the self-cleavage was determined as 0.332.

Take G80C C84A: the self-cleavage amounted to 0.144.

In the case of G80A C85A, the self-cleavage amounted to 0.408.

Regarding G81A C85A, the self-cleavage amounted to 0.35.

Take C85A: the self-cleavage was 0.932.

As to C85G, the self-cleavage turned out to be 0.948.

Turning to C85U, the self-cleavage stood at 0.978.

For G82U, the self-cleavage came to 0.41.

Regarding G82A, the self-cleavage is 0.418.

On to G82C, for which the self-cleavage worked out at 0.259.

Take G81U C84A: the self-cleavage amounted to 0.378.

Regarding C84A A87U, the self-cleavage was determined as 1.02.

Turning to G81A A87U, the self-cleavage came to 0.565.

As to G80U G81A, the self-cleavage is 0.277.

Regarding G80U G81U, the self-cleavage amounted to 0.191.

With G81A A83C, the self-cleavage amounted to 0.165.

Turning to G81A A83U, the self-cleavage is 0.187.

As to C86G, the self-cleavage came to 0.983.

For C86U, the self-cleavage amounted to 0.935.

For C86A, the self-cleavage is 0.926.

With C85G C86A, the self-cleavage came to 0.763.

Take U79C G80U: the self-cleavage came to 0.267.

Consider U79C G80A, for which the self-cleavage came out at 0.129.

For G80A C84A, the self-cleavage was determined as 0.58.

For G80A C84G, the self-cleavage came out at 0.161.

In the case of A83C C84G, the self-cleavage was 0.231.

As for A83C C84A, the self-cleavage was found to be 0.78.

Turning to C84A C86G, the self-cleavage came out at 0.755.

C85U C86G: the self-cleavage amounted to 0.946.

Consider C85U C86A, for which the self-cleavage came out at 0.923.

Turning to A83U C86U, the self-cleavage was 0.95.

Consider G82C C84U, for which the self-cleavage was 0.166.

Take A83U C84U: the self-cleavage worked out at 0.87.

C84G C86G: the self-cleavage was found to be 0.522.

For the variant C85A C86A, the self-cleavage was determined as 0.924.

For the variant G81U A83G, the self-cleavage was found to be 0.152.

As for G80U C84A, the self-cleavage stood at 0.652.

As for C86U A87U, the self-cleavage was 0.835.

As for U79G C86A, the self-cleavage came out at 0.675.
